In article PMC10892419, “UHPLC-MS/MS Assay for Quantification of Legubicin, a Novel Doxorubicin-Based Legumain-Activated Prodrug, and Its Application to Pharmacokinetic and Tissue Distribution Studies” (Molecules, 2024):
Residues, ends and D or L forms follow the SMILES beside them. *: point of attachment. Doxorubicin(3'-N) = COc1cccc2c1C(=O)c1c(O)c3c(c(O)c1C2=O)C[C@@](O)(C(=O)CO)C[C@@H]3O[C@H]1C[C@H](N*)[C@H](O)[C@H](C)O1; Hexanoyl(6-maleimido) = O=C1C=CC(=O)N1CCCCCC(=O)*

Experiments:
[1] = cited from earlier work
[2] = Tissue-distribution study after i.v. legubicin or doxorubicin; conditions: HT1080 tumor-bearing mice
Description: The mixture was vortexed for 3 min, and then centrifuged at 22,000× g at 4 °C for 10 min. A final analysis was conducted by injecting 5 µL supernatant into a UHPLC-MS/MS system. Mouse plasma samples were treated in the same way as the rat plasma samples, except for protein precipitation, with 200 µL of 5 pmol/mL IS working solution and injection of 2 µL of supernatant for analysis.
Each legubicin administration group corresponded to a sampling time-point (4, 16, 32, 48, 96, 168, and 240 h after administration). […] Blood samples and tumor, heart, and kidney tissues were collected at the sampling time points (4, 16, 32, 48, 96, 168, and 240 h after dosing). In addition, liver, spleen, lung, stomach, small intestine, gonads, brain, skeletal muscle, and skin were also collected at 4, 32, 96, and 240 h post-dose time points in the legubicin administration group. All whole-blood samples were processed according to the same processing steps, described above, for rat whole-blood samples.
The analysis software (Version 1.5.2, AB Sciex, Vaughan, ON, Canada) was applied to data acquisition and quantification. Pharmacokinetic parameters were calculated with WinNonlin Phoenix (v6.4, Pharsight, Mountain View, CA, USA) with the noncompartmental method, and were presented as mean ± SD (%CV). The “Best fit” strategy in the WinNonlin Phoenix was used for the calculation of elimination half-life and the selection of the elimination phase. Graphs were plotted by GraphPad Software (GraphPad Prism 8.0.2; GraphPad Software, Inc., La Jolla, CA, USA).

[3] = acute toxicological assessment in dogs; ref unpublished preclinical studies at the authors' institution; cited from earlier work
[4] = legubicin vs equimolar doxorubicin (9.05 µmol/kg i.v.)

SMILES	AUC ([1]; doses equivalent to 2.5 mg/kg of doxorubicin) [µM·h]	clearance (CL) ([1]; published value)	T/P Ratio of doxorubicin, kidney ([2]; i.v. 9.05 µmol/kg of the labelled drug, n = 6, tissue-to-plasma ratio)	fold decrease in doxorubicin exposure (AUClast) in the heart [2, 4] [fold]	fold decrease in doxorubicin exposure (AUClast) in the kidney [2, 4] [fold]	fold increase in tumor doxorubicin exposure (AUClast) [2, 4] [fold]	MTD relative to doxorubicin [3]	maximum tolerated dose (MTD) [3] [mg/kg]
COc1cccc2c1C(=O)c1c(O)c3c(c(O)c1C2=O)C[C@@](O)(/C(CO)=N/NC(=O)CCCCCN1C(=O)C=CC1=O)C[C@@H]3O[C@H]1C[C@H](N)[C@H](O)[C@H](C)O1 [DOXO-EMCH, doxorubicin (6-maleimidocaproyl) hydrazone]	536	approximately 7.9 mL/h/kg	–	–	–	–	–	–
COc1cccc2c1C(=O)c1c(O)c3c(c(O)c1C2=O)C[C@@](O)(C(=O)CO)C[C@@H]3O[C@H]1C[C@H](NC(=O)[C@H](CC(C)C)NC(=O)[C@H](CC(N)=O)NC(=O)[C@H](C)NC(=O)[C@H](C)NC(=O)CCCCCN2C(=O)C=CC2=O)[C@H](O)[C@H](C)O1 [Legubicin] ({Hexanoyl(6-maleimido)}-AANL-{Doxorubicin(3'-N)})	–	–	28.9	3.3	3.5	1.8	tenfold increase compared to doxorubicin	15
